Values of other authors, collected in patent publication US20210137911A1, “NOVEL CHRONOTHERAPY BASED ON CIRCADIAN RHYTHMS” (THE TRUSTEES OF THE UNIVERSITY OF PENNSYLVANIA, priority 2014, published 2021).

B1: Tenecteplase (protein, UniProt P00750 36-562, looked up, variant T103N N117Q K296A H297A R298A R299A)
Tissue-type plasminogen …: SYQVICRDEKTQMIYQQHQSWLRPVLRSNRVEYCWCNSGRAQCHSVPVKSCSEPRCFNGGTCQQALYFSDFVCQCPEGFAGKCCEIDTRATCYEDQGISYRGNWSTAESGAECTNWQSSALAQKPYSGRRPDAIRLGLGNHNYCRNPDRDSKPWCYVFKAGKYSSEFCSTPACSEGNSDCYFGNGSAYRGTHSLTESGASCLPWNSMILIGKVYTAQNPSAQALGLGKHNYCRNPDGDAKPWCHVLKNRRLTWEYCDVPSCSTCGLRQYSQPQFRIKGGLFADIASHPWQAAIFAAAAASPGERFLCGGILISSCWILSAAHCFQERFPPHHLTVILGRTYRVVPGEEEQKFEVEKYIVHKEFDDDTYDNDIALLQLKSDSSRCAQESSVVRTVCLPPADLQLPDWTECELSGYGKHEALSPFYSERLKEAHVRLYPSSRCTSQHLLNRTVTDNMLCAGDTRSGGPQANLHDACQGDSGGPLVCLNDGRMTLVGIISWGLGCGQKDVPGVYTKVTNYLDWIRDNMRP
B2: Filgrastim (protein, chains of the INN, looked up)
chain: MTPLGPASSLPQSFLLKCLEQVRKIQGDGAALQEKLCATYKLCHPEELVLLGHSLGIPWAPLSSCPSQALQLAGCLSQLHSGLFLYQGLLQALEGISPELGPTLDTLQLDVADFATTIWQQMEELGMAPALQPTQGAMPAFASAFQRRAGGVLVASHLQSFLEVSYRVLRHLAQP
modifications: N-terminal methionine
B3: Idursulfase (protein, UniProt P22304 34-455; P22304 456-550, looked up)
Iduronate 2-sulfatase 42 kDa …: TDALNVLLIIVDDLRPSLGCYGDKLVRSPNIDQLASHSLLFQNAFAQQAVCAPSRVSFLTGRRPDTTRLYDFNSYWRVHAGNFSTIPQYFKENGYVTMSVGKVFHPGISSNHTDDSPYSWSFPPYHPSSEKYENTKTCRGPDGELHANLLCPVDVLDVPEGTLPDKQSTEQAIQLLEKMKTSASPFFLAVGYHKPHIPFRYPKEFQKLYPLENITLAPDPEVPDGLPPVAYNPWMDIRQREDVQALNISVPYGPIPVDFQRKIRQSYFASVSYLDTQVGRLLSALDDLQLANSTIIAFTSDHGWALGEHGEWAKYSNFDVATHVPLIFYVPGRTASLPEAGEKLFPYLDPFDSASQLMEPGRQSMDLVELVSLFPTLAGLAGLQVPPRCPVPSFHVELCREGKNLLKHFRFRDLEEDPYLPG
Iduronate 2-sulfatase 14 kDa …: NPRELIAYSQYPRPSDIPQWNSDKPSLKDIKIMGYSIRTIDYRYTVWVGFNPDEFLANFSDIHAGELYFVDSDPLQDHNMYNDSQGGDLFQLLMP

conditions: in vivo

Going from B1 to B2, the “½ Life” value rises from 1.9 h to 3.5 h (1.8-fold).

For B3, the “½ Life” value is listed as 0.733 h.
